B1: anti-nsp9 VHH_(2nsp23) (VHH)
VHH: QVQLQESGGGLVQPGGSLRLSCAASGLAFSMYTMGWFRQAPGKEREFVAMIISSGDSTDYADSVKGRFTISRDNGKNTVYLQMDSLKPEDTAVYYCAAPKFRYYFSTSPGDFDSWGQGTQVTVSS
B2: SARS-CoV-2 nsp9 (natural protein, UniProt P0DTD1 4141-4253, looked up)
chain: NNELSPVALRQMSCAAGTTQTACTDDNALAYYNTTKGGRFVLALLSDLQDLKWARFPKSDGTGTIYTELEPPCRFVTDTPKGPKVKYLYFIKGLNNLNRGMVLGSLAATVRLQ
notes: also called nsp9_(COV19); Nsp9_(COV19)

Columns and labels:
SARS-CoV-2 nsp9 = target: T1, SARS-CoV-2 nsp9 (SARS-CoV-2, UniProt P0DTD1); assay: crystal structure; settings: both partners purified
T1 construct: also called nsp9_(COV19); Nsp9_(COV19)

crystal structure = target: the molecule itself; assay: crystal structure

| Binder | binding result (SARS-CoV-2 nsp9) | binding result (crystal structure) |
| --- | --- | --- |
| B1 | binds |  |
| B2 |  | binds |

From paper PMC10085042 (PLOS ONE, 2023)
